Measured values as given in patent publication US20240327495A1 (OXFORD UNIVERSITY INNOVATION, published 2024).

Target: C. difficile toxin B glucosyltransferase domain (GTD, residues 2-543) (Clostridium difficile, UniProt P18177 2-543)
Sequence (P18177 2-543 limits assumed): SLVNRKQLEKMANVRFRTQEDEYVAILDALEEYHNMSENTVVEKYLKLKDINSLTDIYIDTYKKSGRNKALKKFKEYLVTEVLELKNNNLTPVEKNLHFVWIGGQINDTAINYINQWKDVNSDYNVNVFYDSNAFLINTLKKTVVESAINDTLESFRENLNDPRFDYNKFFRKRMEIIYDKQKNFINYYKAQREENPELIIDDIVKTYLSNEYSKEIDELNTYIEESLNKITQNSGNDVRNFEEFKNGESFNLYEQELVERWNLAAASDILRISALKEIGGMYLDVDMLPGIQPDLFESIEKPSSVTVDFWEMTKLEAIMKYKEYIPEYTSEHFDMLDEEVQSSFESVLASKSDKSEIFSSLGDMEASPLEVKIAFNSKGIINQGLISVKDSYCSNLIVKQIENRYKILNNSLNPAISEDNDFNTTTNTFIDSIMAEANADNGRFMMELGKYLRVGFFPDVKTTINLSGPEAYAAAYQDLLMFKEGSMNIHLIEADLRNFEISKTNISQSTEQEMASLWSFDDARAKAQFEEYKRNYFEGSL

B1: GT01 R63A (designed binder, not shown: small tags and cut ends)
chain: DFVLDNEGNPLENGGTYYILSDYGRQLFGGIRAAPTGNERCPLTVVQSLFRNHRDKGIGTIISSPYAIRFIAEGHPLSLKFDSFAVIMLCVGIPTEWSVVEDLPEGPAVKIGENKDAMDGWFRLERVSDDEFNNYKLVFCPQQAEDDKCGDIGISIDHDDGTRRLVVSKNKPLVVQFQKLDKESL
- EC50 (read off the curve): ~7 nM
